Biological target: T1, C-terminally His-tagged human ECRG4(32–148) (human, UniProt Q9H1Z8 32-148)
T1 chain: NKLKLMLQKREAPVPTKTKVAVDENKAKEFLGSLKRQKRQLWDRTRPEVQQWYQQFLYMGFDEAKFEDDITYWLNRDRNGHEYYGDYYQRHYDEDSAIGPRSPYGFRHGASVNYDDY
Assay: SPR

B1: 2 × CTLD–Fc (two human LOX-1 CTLDs in tandem, Fc-fused) (Fc fusion)
chain: not shown
  Kd: 14.2 nM
